According to patent US20240093162:

T1: Pro-Tgase variant (thermostable variant of Streptomyces mobaraensis Tgase in zymogen form)
T1 chain: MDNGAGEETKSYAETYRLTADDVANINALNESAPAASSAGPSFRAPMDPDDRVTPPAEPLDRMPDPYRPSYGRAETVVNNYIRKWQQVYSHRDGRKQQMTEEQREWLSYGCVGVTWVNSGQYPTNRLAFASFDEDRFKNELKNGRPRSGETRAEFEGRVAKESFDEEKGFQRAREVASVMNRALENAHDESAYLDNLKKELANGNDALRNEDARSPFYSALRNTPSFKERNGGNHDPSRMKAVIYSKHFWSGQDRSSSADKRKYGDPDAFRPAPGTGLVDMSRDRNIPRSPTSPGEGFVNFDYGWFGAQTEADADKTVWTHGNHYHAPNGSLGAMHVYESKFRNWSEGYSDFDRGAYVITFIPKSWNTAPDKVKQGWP

T2: FRAP-Tgase variant (thermostable variant of Streptomyces mobaraensis Tgase having a FRAP tetrapeptide at the N-terminal end)
T2 chain: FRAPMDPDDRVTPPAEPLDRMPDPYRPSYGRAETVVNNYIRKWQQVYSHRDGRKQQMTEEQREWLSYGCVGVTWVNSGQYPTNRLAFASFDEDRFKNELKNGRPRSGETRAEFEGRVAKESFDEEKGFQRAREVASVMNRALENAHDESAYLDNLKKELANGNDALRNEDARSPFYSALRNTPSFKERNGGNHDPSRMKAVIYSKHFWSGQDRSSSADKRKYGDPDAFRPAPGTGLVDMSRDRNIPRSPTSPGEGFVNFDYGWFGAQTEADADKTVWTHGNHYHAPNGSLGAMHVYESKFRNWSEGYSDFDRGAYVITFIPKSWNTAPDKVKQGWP

B1: Streptomyces mobaraensis transglutaminase-activating M4 metalloprotease (TAMEP), mature, catalytically active form (protein)
chain: GTGNSQHSGQVQIGTTKSGSSYQMNDTTRGGHKTYNLNHGSSGTGTLFTDSDDVWGNGTNSDPATAGVDAHYGAQLTWDYYKNVHGRNGIRGDGVGAYSRVHYGNNYVNAFWDDSCFCMTYGDGNGIPLTSIDVAAHEMTHGVTSATANLTYSGESGGLNEATSDMMATAVEFWANNPADPGDYLIGEKININGDGTPLRYMDKPSKDGASKDAWYSGLGGIDVHYSSGPANHWFYLASEGSGPKDIGGVHYDSPTSDGLPVTGVGRDNAAKIWFKALTERMQSNTDYKGARDATLWAAGELFGVNSDTYNNVANAWAAINVGPRASSGVSVTSPGDQTSIVNQAVSLQIKATGSTSGALTYSATGLPAGLSINASTGLISGTPTTTGTSNVTVTVKDSAGKTGSTSFKWTVNTTGGGSVFENTTQVAIPDAGAAVTSPIVVTRSGNGPSALKVDVNITHTYRGDLTIDLVAPNGKTWRLKNSDAWDSAADVSETYTVDASSVSANGTWKLKVQDVYSGDSGTIDKWRLTF
B2: Streptomyces mobaraensis transglutaminase-activating tripeptidyl aminopeptidase (SM-TAP), mature, catalytically active form (protein)
chain: QADIKDRILKIPGMKFVEEKPYQGYRYLVMTYRQPVDHRNPGKGTFEQRFTLLHKDTDRPTVFFTSGYNVSTNPSRSEPTRIVDGNQVSMEYRFFTPSRPQPADWSKLDIWQAASDQHRLYQALKPVYGKNWLATGGSKGGMTATYFRRFYPNDMNGTVAYVAPNDVNDKEDSAYDKFFQNVGDKACRTQLNSVQREALVRRDEIVARYEKWAKENGKTFKVVGSADKAYENVVLDLVWSFWQYHLQSDCASVPATKASTDELYKFIDDISGFDGYTDQGLERFTPYYYQAGTQLGAPTVKNPHLKGVLRYPGINQPRSYVPRDIPMTFRPGAMADVDRWVREDSRNMLFVYGQNDPWSGEPFRLGKGAAARHDYRFYAPGGNHGSNIAQLVADERAKATAEVLKWAGVAPQAVQKDEKAAKPLAPFDAKLDRVKNDKQSALRP

Key:
[1] = target: T1, Pro-Tgase variant (thermostable variant …)
[2] = target: T2, FRAP-Tgase variant (thermostable …)

Row | Protein | proteolytic cleavage by soluble TAMEP: UPLC-MS total ion counts of the cleaved pro-peptide, and N-terminal sequencing [1] | proteolytic digestion by TAMEP immobilized on porous solid supports: UPLC-MS, colorimetric Tgase activity assay, N-terminal sequencing [1] | proteolytic digestion by co-immobilized TAMEP and SM-TAP: UPLC-MS FRAP tetrapeptide area counts [1] | proteolytic cleavage by soluble SM-TAP: UPLC-MS total area count of FRAP tetrapeptide, and N-terminal sequencing [2] | proteolytic digestion by SM-TAP immobilized on porous solid supports: UPLC-MS, colorimetric Tgase activity assay, N-terminal sequencing [2] | proteolytic digestion by co-immobilized TAMEP and SM-TAP: UPLC-MS FRAP tetrapeptide area counts, N-terminal sequencing [2]
1 | B1 | N-terminal peptide sequencing, performed as described in Example 2 above, confirmed that the FRAP amino acid sequence was present on the N-terminal end of the catalytically active, not mature FRAP-Tgase variant (SEQ ID NO:5) | Activity assay results showed that TAMEP retained protease activity when immobilized on all the porous solid supports shown in Table 2 | Activity assay results showed that co-immobilized TAMEP and SM-TAP retained protease activity on all the porous solid supports set forth in Table 3 below |  |  | 
2 | B2 |  |  |  | N-terminal peptide sequencing, performed as described in Example 2 above, confirmed that the FRAP tetrapeptide had been removed from the N-terminal end of the FRAP-Tgase variant (SEQ ID NO:5) resulting in a mature, catalytically active Tgase variant (SEQ ID NO:6) | Activity assay results showed that SM-TAP retained protease activity when immobilized on all the porous solid supports shown in Table 2 | Activity assay results showed that co-immobilized TAMEP and SM-TAP retained protease activity on all the porous solid supports set forth in Table 3 below
